Experimental data: paper PMC5814282, “Biophysical studies and NMR structure of YAP2 WW domain - LATS1 PPxY motif complexes reveal the basis of their interaction” (Oncotarget, 2018)

How the values were obtained:
[1] = target: T1, LATS1 PY12 (both PPxY motifs; aa 361-567) (UniProt O95835 361-567); assay: ITC; WW12 vs PY12; 20 mM Tris-HCl pH 7.0, 100 mM NaCl, 3% glycerol, 2 mM DTT, 2 mM EDTA; single ligand binding site model; conditions: both partners purified
T1 construct: LATS1, region with both PPxY motifs, aa 361-567; cloned into pACYC; 15N-labelled in one of the NMR titrations; source: E. coli BL21 (DE3), purified
T1 sequence (looked up): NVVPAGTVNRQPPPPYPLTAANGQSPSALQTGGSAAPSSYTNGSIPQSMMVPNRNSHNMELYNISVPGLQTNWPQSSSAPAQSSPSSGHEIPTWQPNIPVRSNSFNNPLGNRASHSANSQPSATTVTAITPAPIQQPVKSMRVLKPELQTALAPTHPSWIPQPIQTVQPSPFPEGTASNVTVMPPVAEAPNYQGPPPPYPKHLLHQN

[2] = target: T2, YAP2 WW1 domain (aa 163-206) (human, UniProt P46937-2 163-206); assay: ITC; protein 20 to 70 uM titrated against peptide 0.5 to 1.8 mM, 25°C, 20 mM Tris-HCl pH 7.0, 100 mM NaCl; single ligand binding site model; conditions: both partners purified
T2 construct: YES-associated protein, isoform YAP2 (YAP1-2, two WW domains), human, first WW domain, aa 163-206; cloned into pGEX-6P-1

B1: YAP2 WW12 (both WW domains; aa 163-266) (domain or fragment, human, UniProt P46937-2 163-266, looked up)
chain: SSFEIPDDVPLPAGWEMAKTSSGQRYFLNHIDQTTTWQDPRKAMLSQMNVTAPTSPPVQQNMMNSASGPLPDGWEQAMTQDGEIYYINHKNKTTSWLDPRLDPR
notes: YES-associated protein, isoform YAP2 (YAP1-2), human, both WW domains, aa 163-266; cloned into pGEX-6P-1; 15N-labelled in one of the NMR titrations; source: also co-expressed with PY12 and co-purified
- Kd [1]: 9.6 µM

B2: LATS1 PPxY1 peptide mutant R to A (peptide)
peptide: NAQPPPPYPLTA
notes: also called PPxY1m; PPxY1R→A; source: synthetic peptide, bought: GL BioChem
- Kd [2]: 14 µM

B3: LATS1 PPxY2 peptide mutant Q to A (peptide)
peptide: NYAGPPPPYPKH
notes: LATS1 PPxY2 peptide aa 551-562 with the Q at P1-3 changed to A; also called PPxY2m; PPxY2 Q→A; source: synthetic peptide, bought: GL BioChem
- Kd [2]: 4.4 µM
